The source of these data is patent US10494415B2, “Insulin-like growth factor 2 (IGF2) binding agents” (Cancer Research Technology Limited, priority 2015, dated 2019).

The subject of experiment [1] is Ewing sarcoma cell line (SKNMC). Put plainly: Synthetic lethality hit validation dose response curves. To be noted: Homo sapiens, SK-N-MC. The class given is cell-based. On the procedure: For synthetic lethality hit validation, fresh stocks of the […] drugs selected as hits were obtained (pictilisib, SYNkinase and PF-04691502, Cayman Chemical). The interaction of the selected drugs and IGF2-TRAP were evaluated by Q-value calculated by the formula Q=FD+T/FD+(1−FD)FT, where FD+T represents the fraction affected by treatment with the drug plus IGF2-TRAP compared with the untreated control group, FD represents the fraction affected by the drug alone, and FT represents the fraction affected by the IGF2-TRAP alone. A value of Q>1.15 indicates a synergistic effect, Q<0.85 indicates an antagonistic effect, and Q between 0.85 and 1.15 indicates an additive effect.

Experiment [2] addresses T1, IGF2 (Homo sapiens, UniProt P01344). As to conditions: background, literature references; cited from earlier work.
Experiment [3] addresses T1, IGF2. Put plainly: SPR (Biacore T200) of recombinant IGF2R domain 11 mutants on immobilised biotinylated IGF2. Format: binding. More on the design: purchased GroPep. The method, boiled down:
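Biotinylated IGF2 (or IGF1) captured on streptavidin chip; domain 11 mutants (E. coli or P. pastoris, AB5 background) injected at 25 °C, 40 μL/min, in HBS-EP pH 7.4 or MES-EP pH 6.5. kon/koff from 1:1 fit; KD as mean of 2-5 repeats.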

In a further experiment the target is IGF1 (Homo sapiens, UniProt P05019). As to the kind of experiment: SPR of domain 11 mutants on immobilised biotinylated IGF1 (specificity). Format: binding. An excerpt: Surface plasmon resonance (SPR) binding analysis of recombinant M6P/IGF2R domain 11 mutants interaction with IGF2. Kon indicates association (on) rate; koff, dissociation (off) rate; RU, response units. Binding to IGF2 assessed with BIAcore T200 using purified biotinylated IGF2 and IGF1 on a streptavidin biosensor chip. Recombinant proteins were expressed either in E. coli and/or P. pastoris. All the mutants in the FG and CD loops are on the domain 11^AB5 background for the AB loop unless otherwise stated. All experiments were carried out at 25° C. in HBS-EP buffer (pH 7.4), were repeated 2-5 times on two independent BIAcore chips. nd=not determined. Data for KD expressed as mean of each experiment, and means of kon and koff are shown.
Chain of IGF1 (P05019 49-118): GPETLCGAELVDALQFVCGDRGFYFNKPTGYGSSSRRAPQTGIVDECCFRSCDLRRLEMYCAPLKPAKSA
Final kinetic analysis of mutants by SPR was conducted using a Biacore T200 biosensor at 25° C. in either HBS-EP (10 mM HEPES pH 7.4, 150 mM NaCl, 3 mM EDTA, and 0.005% (v/v) surfactant P20) or MES-EP (20 mM MES pH 6.5, 150 mM NaCl, 3 mM EDTA, and 0.005% (v/v) surfactant P20) at a flow-rate of 40 μL min^−1. […] This interaction was also analysed by immobilizing the Fc-domain 11^AB5 and Fc-domain 11^AB5-RHH (or Fc-domain 11^I1572A as control) by Human Antibody Capture (monoclonal mouse anti-human IgG antibody immobilised on a CM5 chip by amine coupling, GE Healthcare) with and without human IgG1 Fc fragment (Bethyl Laboratories, UK) in the control flow cell. […]

Setting [4] is: in the presence of Fc-domain 11^AB5-RHH (IGF2-TRAP).

T1 sequence (P01344 25-91): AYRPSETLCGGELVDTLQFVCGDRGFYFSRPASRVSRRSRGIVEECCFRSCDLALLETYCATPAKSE

With `COc1ccc(-c2cc3c(C)nc(N)nc3n([C@H]3CC[C@H](OCCO)CC3)c2=O)cn1` [PF-04691502, 2-amino-8-[trans-4-(2-hydroxyethoxy)cyclohexyl]-6-(6-methoxypyridin-3-yl)-4-methylpyrido-[2,3-d]pyrimidin-7(8H)-one], the values for the IC50 in experiment [1] (drug alone) and in experiment [1] (setting [4]) were 420 nM and 92 nM, respectively.
For `CS(=O)(=O)N1CCN(Cc2cc3nc(-c4cccc5[nH]ncc45)nc(N4CCOCC4)c3s2)CC1` [Pictilisib, 4-[2-(1H-indazol-4-yl)-6-[(4-methylsulfonylpiperazin-1-yl)methyl]thieno[3,2-d]pyrimidin-4-yl]morpholine], the results for the IC50 in experiment [1] (drug alone) and in experiment [1] (setting [4]) were 1100 nM and 140 nM, respectively.

B1: AB3: IGF2R domain 11 with AB loop mutations E1544K, K1545S, L1547V (YSKSGV) (protein)
chain: MKSNEHDDCQVTNPSTGHLFDLSSLSGRAGFTAAYSKSGVVYMSICGENENCPPGVGACFGQTRISVGKANKRLRYVDQVLQLVYKDGSPCPSKSGLSYKSVISFVCRPEAGPTNRPMLISLDKQTCTLFFSWHTPLACEQATECSV
Regarding B1, the Kd in the experiment with IGF2 [2] is 15 nM. Moreover, the Kinetics koff in the experiment with IGF2 [3] (Table 1, 25° C., HBS-EP pH 7.4) was found to be 0.044 s⁻¹; with IGF2 [3] (Table 2), 0.044 s⁻¹; with IGF2 [3] (Table 3, 25° C., HBS-EP pH 7.4), 0.044 s⁻¹; in the experiment with IGF2 [3] (Table 4, MES-EP pH 6.5), 0.0381 s⁻¹. In addition, the Kinetics kon with IGF2 [3] (Table 1, 25° C., HBS-EP pH 7.4) was found to be 2.76e+06 M⁻¹ s⁻¹; in the experiment with IGF2 [3] (Table 2), 2.76e+06 M⁻¹ s⁻¹; in the experiment with IGF2 [3] (Table 3, 25° C., HBS-EP pH 7.4), 2.76e+06 M⁻¹ s⁻¹; with IGF2 [3] (Table 4, MES-EP pH 6.5), 3.43e+06 M⁻¹ s⁻¹.

B2: AB5 Q1569R P1597K S1602H G1603K: domain 11 AB5 + Q1569R, P1597K, S1602H, G1603K (protein)
chain: MKSNEHDDCQVTNPSTGHLFDLSSLSGRAGFTAAYAKGWGVYMSICGENENCPPGVGACFGRTRISVGKANKRLRYVDQVLQLVYKDGSKCPSKHKLSYKSVISFVCRPEAGPTNRPMLISLDKQTCTLFFSWHTPLACEQATECSV
B2: the Kinetics koff in the experiment with IGF2 [3] (Table 3, 25° C., HBS-EP pH 7.4) came to 0.008 s⁻¹.

B3: AB5: IGF2R domain 11 with five AB loop mutations S1543A, E1544K, K1545G, G1546W, L1547G (YAKGWG) (protein)
chain: MKSNEHDDCQVTNPSTGHLFDLSSLSGRAGFTAAYAKGWGVYMSICGENENCPPGVGACFGQTRISVGKANKRLRYVDQVLQLVYKDGSPCPSKSGLSYKSVISFVCRPEAGPTNRPMLISLDKQTCTLFFSWHTPLACEQATECSV
In the case of B3, in the experiment with IGF1, the “IGF2 specificity with respect to IGF1” value is “retained IGF2 specificity”. The Kinetics koff with IGF2 [3] (Table 1, 25° C., HBS-EP pH 7.4) worked out at 0.0208 s⁻¹; with IGF2 [3] (Table 3, 25° C., HBS-EP pH 7.4) it was 0.0208 s⁻¹; in the experiment with IGF2 [3] (Table 4, MES-EP pH 6.5), 0.0180 s⁻¹. In addition, the Kinetics kon with IGF2 [3] (Table 1, 25° C., HBS-EP pH 7.4) was 4.21e+06 M⁻¹ s⁻¹; with IGF2 [3] (Table 3, 25° C., HBS-EP pH 7.4), 4.21e+06 M⁻¹ s⁻¹; with IGF2 [3] (Table 4, MES-EP pH 6.5) it was 4.17e+06 M⁻¹ s⁻¹.

B4: WT: wild-type human IGF2R domain 11 (residues 1511-1650), AB loop YSEKGL (protein)
chain: MKSNEHDDCQVTNPSTGHLFDLSSLSGRAGFTAAYSEKGLVYMSICGENENCPPGVGACFGQTRISVGKANKRLRYVDQVLQLVYKDGSPCPSKSGLSYKSVISFVCRPEAGPTNRPMLISLDKQTCTLFFSWHTPLACEQATECSV
Regarding B4, the Kd in the experiment with IGF2 [2] is 40 to 60 nM. Besides, in the experiment with IGF2 [3] (Table 1, 25° C., HBS-EP pH 7.4), the Kinetics koff was 0.23 s⁻¹ and the Kinetics kon turned out to be 5e+06 M⁻¹ s⁻¹. In addition, in the experiment with IGF2 [3] (Table 2), the Kinetics koff came out at 0.23 s⁻¹ and the Kinetics kon was found to be 5e+06 M⁻¹ s⁻¹. In the experiment with IGF2 [3] (Table 4, MES-EP pH 6.5), the Kinetics koff turned out to be 0.1441 s⁻¹ and the Kinetics kon was 2.68e+06 M⁻¹ s⁻¹. In addition, in the experiment with IGF2 [3] (van't Hoff, 10° C. to 30° C.), the “ΔH of IGF2 interaction” value is reported as below 0 and the “−TΔS of IGF2 interaction” value is listed as above 0.
